Experiment [1] deals with Ebola virus (EBOV, Zaire) glycoprotein GP, wild type (Ebola virus (EBOV, Zaire)) (UniProt Q05320).
Experiment [2] concerns the target Sudan virus (SUDV) glycoprotein GP (Sudan virus (SUDV)) (UniProt Q7T9D9).
Experiment [3] has the same target. The source holds these as a separate data set.

Where two headings read alike, the source gives them in different places.

In experiment [1], “H27Q/S52Y/G66R-LC (ADI-15946 light chain triple mutant) (antibody)” returned an IC50, neutralisation of EBOV GP pseudovirus (luciferase, Huh7 cells) of 0.15 µg/mL and an IC90, neutralisation of EBOV GP pseudovirus (luciferase, Huh7 cells) of 0.86 µg/mL.

As for “A50Y/S52Y/L54R-LC (ADI-15946 light chain triple mutant) (antibody)”, in experiment [1], the IC50, neutralisation of EBOV GP pseudovirus (luciferase, Huh7 cells) was determined as 0.15 µg/mL and the IC90, neutralisation of EBOV GP pseudovirus (luciferase, Huh7 cells) stood at 1.1 µg/mL.

As for ADI-15878 (antibody), in experiment [2], the IC50, neutralisation of SUDV GP pseudovirus (luciferase, Huh7 cells) stood at 0.04 µg/mL and the IC90, neutralisation of SUDV GP pseudovirus (luciferase, Huh7 cells) amounted to 0.9 µg/mL. The IC90, neutralisation of SUDV GP pseudovirus (luciferase, Huh7 cells) in experiment [3] came to 0.3 µg/mL.
